Reference: patent US20100280227A1 (Genentech, published 2010)
Values belong to the binder of their own block, whether it stands above or below them.

Tests used:
human FcRn [1] = molecular target: T1, human FcRn (human, UniProt P55899 24-297; P61769 21-119, limits assumed); experiment: SPR, FcRn on chip, kinetic, pH 6
T1 construct: construct not described; also called huFcRn

cynomolgus FcRn [2] = molecular target: T2, cynomolgus FcRn (cynomolgus monkey, UniProt Q8SPV9 24-297; Q8SPW0 21-119, limits assumed); experiment: SPR, FcRn on chip, kinetic, pH 6
T2 construct: construct not described; also called cynoFcRn; cyno FcRn

human FcRn [3] = molecular target: T1, human FcRn; experiment: SPR, FcRn on chip, kinetic, pH 6.0 (KDa)
cynomolgus FcRn [4] = molecular target: T2, cynomolgus FcRn; experiment: SPR, FcRn on chip, kinetic, pH 6.0 (KDa)
human FcRn [5] = molecular target: T1, human FcRn; experiment: SPR, FcRn on chip, equilibrium, pH 6.0 (KDb)
cynomolgus FcRn [6] = molecular target: T2, cynomolgus FcRn; experiment: SPR, FcRn on chip, equilibrium, pH 6.0 (KDb)
[7] = molecular target: T3, human FcγRI extracellular domain, His-tagged GST fusion (human, UniProt P12314 16-292); experiment: ELISA, captured FcgR-GST; A450 ratio to 9.1RF
T3 construct: extracellular domain; also called hFcgRI; Human I

[8] = molecular target: T4, human FcγRIIa extracellular domain, His-tagged GST fusion (human, UniProt P12318 34-217); experiment: ELISA, captured FcgR-GST; A450 ratio to 9.1RF
T4 construct: extracellular domain; also called hFcgRIIa; Human IIa
T4 sequence (looked up): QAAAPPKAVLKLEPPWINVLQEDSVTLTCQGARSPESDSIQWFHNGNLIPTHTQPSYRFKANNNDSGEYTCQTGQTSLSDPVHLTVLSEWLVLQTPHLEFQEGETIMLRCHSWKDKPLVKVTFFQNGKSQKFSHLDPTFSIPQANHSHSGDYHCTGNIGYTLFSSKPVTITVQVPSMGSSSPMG

[9] = molecular target: T5, human FcγRIIb extracellular domain, His-tagged GST fusion (human, UniProt P31994 43-217); experiment: ELISA, captured FcgR-GST; A450 ratio to 9.1RF
T5 construct: extracellular domain; also called hFcgRIIb; Human IIb
T5 sequence (looked up): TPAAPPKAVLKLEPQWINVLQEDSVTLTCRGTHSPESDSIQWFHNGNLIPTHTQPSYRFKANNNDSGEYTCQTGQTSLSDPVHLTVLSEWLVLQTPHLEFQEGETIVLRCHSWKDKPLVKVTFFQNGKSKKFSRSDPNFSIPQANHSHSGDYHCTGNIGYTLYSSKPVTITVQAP

[10] = molecular target: T3, human FcγRI extracellular domain, …; experiment: ELISA, receptor-His-GST captured by anti-GST, uncomplexed IgG
[11] = molecular target: T4, human FcγRIIa extracellular domain, …; experiment: ELISA, receptor-His-GST captured by anti-GST, IgG complexed with anti-kappa F(ab')2

- koff (human FcRn [1]): 0.0467 s⁻¹
- kon (human FcRn [1]): 884000 M⁻¹ s⁻¹
- koff (cynomolgus FcRn [2]): 0.0962 s⁻¹
- kon (cynomolgus FcRn [2]): 1.7e+06 M⁻¹ s⁻¹
- Kd (human FcRn [3]): 52.8 nM
- Kd (cynomolgus FcRn [4]): 56.5 nM
- Kd (human FcRn [5]): 66.6 nM
- Kd (cynomolgus FcRn [6]): 62.7 nM
- binding relative to 9.1RF [7]: 0.97 ratio
- binding relative to 9.1RF [8]: 0.66 ratio
- binding relative to 9.1RF [9]: 0.45 ratio
- EC50 (read off the curve) [10]: ~0.006 µg/mL
- EC50 (read off the curve) [11]: ~2 µg/mL
B1: 9.1RF N434A IgG (antibody)
light: DIQMTQSPSSLSASVGDRVTITCKSSQSLLYSSNQNNYLAWYQQKPGKAPKLLIYWASTRESGVPSRFSGSGSGTDFTLTISSLQPEDFATYYCQQYYTYPYTFGQGTKVEIKRTVAAPSVFIFPPSDEQLKSGTASVVCLLNNFYPREAKVQWKVDNALQSGNSQESVTEQDSKDSTYSLSSTLTLSKADYEKHKVYACEVTHQGLSSPVTKSFNRGEC
heavy: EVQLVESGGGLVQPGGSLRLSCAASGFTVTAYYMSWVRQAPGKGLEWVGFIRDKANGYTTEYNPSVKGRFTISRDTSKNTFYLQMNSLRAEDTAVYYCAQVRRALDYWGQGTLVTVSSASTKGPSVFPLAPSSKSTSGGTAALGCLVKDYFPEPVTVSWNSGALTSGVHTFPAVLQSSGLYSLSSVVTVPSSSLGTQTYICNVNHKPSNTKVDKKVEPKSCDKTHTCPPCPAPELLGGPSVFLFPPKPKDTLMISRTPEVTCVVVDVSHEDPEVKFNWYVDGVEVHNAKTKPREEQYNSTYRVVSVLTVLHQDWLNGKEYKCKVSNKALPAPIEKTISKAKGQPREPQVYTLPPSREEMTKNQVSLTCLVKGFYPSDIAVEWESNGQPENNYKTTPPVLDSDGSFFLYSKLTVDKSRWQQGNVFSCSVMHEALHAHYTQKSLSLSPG
notes: produced in CHO cells; copies: 2 + 2

- koff (human FcRn [1]): 0.0102 s⁻¹
- kon (human FcRn [1]): 4.31e+06 M⁻¹ s⁻¹
- koff (cynomolgus FcRn [2]): 0.0144 s⁻¹
- kon (cynomolgus FcRn [2]): 4.74e+06 M⁻¹ s⁻¹
- Kd (human FcRn [3]): 2.37 nM
- Kd (cynomolgus FcRn [4]): 3.03 nM
- Kd (human FcRn [5]): 5.8 nM
- Kd (cynomolgus FcRn [6]): 5.1 nM
- binding relative to 9.1RF [7]: 1 ratio
- binding relative to 9.1RF [8]: 0.64 ratio
- binding relative to 9.1RF [9]: 0.4 ratio
- EC50 (read off the curve) [10]: ~0.006 µg/mL
- EC50 (read off the curve) [11]: ~2 µg/mL
B2: 9.1RF N434W IgG (antibody)
light: B1 light
heavy: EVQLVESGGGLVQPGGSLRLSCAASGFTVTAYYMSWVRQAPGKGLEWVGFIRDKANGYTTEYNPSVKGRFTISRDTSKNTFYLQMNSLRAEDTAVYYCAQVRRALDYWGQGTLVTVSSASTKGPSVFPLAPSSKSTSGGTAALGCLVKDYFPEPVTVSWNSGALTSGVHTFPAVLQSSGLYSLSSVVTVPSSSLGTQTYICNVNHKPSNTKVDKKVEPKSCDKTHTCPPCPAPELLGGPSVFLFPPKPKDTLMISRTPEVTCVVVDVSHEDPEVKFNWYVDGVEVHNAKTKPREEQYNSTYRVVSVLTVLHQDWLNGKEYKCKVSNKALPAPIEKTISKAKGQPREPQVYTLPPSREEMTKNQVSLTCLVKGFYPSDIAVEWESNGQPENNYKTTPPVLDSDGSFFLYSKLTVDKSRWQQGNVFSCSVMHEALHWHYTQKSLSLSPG
notes: as for B1
